From paper PMC13185157 (ACS Synthetic Biology, 2026)

The binders below were run against T1, GFP (Aequorea victoria GFP, engineered …) (assay: flow cytometry on cells; about 1 x 10^6 yeast cells displaying the α-GFP Nb in 20 mM HEPES pH 7.5, 150 mM NaCl, 0.1% BSA, 5 mM maltose; GFP from a bacterial cell lysate (20–30 μL); 15 min at 4 °C; GFP fluorescence, percent of positive cells). Settings: partners not purified.
T1 construct: green fluorescent protein expressed from pYTK001; also called green fluorescent protein; source: E. coli DH5α, constitutive expression from pYTK001, in lysate
T1 sequence (P42212 other isoform, or with tags, fused parts or gaps): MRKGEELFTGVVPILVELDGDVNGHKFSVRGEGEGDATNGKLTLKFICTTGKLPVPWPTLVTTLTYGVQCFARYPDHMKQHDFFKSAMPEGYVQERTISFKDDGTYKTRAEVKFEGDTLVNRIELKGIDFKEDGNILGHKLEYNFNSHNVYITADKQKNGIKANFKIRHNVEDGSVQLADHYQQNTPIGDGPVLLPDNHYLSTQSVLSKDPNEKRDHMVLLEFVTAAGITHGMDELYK

Row | percent of cells labelled with GFP [%] | Binder
1 | > 80 | α-GFP Nb displayed as N-terminal fusion to HA-tagged Aga1ΔN181 (VHH, anti-GFP nanobody; Plasmid details in File S1; also called anti-GFP Nanobody; not shown: HA (of the anchor part), internal (between nanobody and anchor), kept; Aga1ΔN181 anchor (Aga1p YNR044W amino acids 182–544), C-terminal, kept) VHH: QVQLVESGGALVQPGGSLRLSCAASGFPVNRYSMRWYRQAPGKEREWVAGMSSAGDRSSYEDSVKGRFTISRDDARNTVYLQMNSLKPEDTAVYYCNVNVGFEYWGQGTQVTVSS
2 | > 80 | α-GFP Nb displayed as N-terminal fusion to 2xFLAG-tagged Aga1ΔN181 (VHH, anti-GFP nanobody, as in m2; also called anti-GFP Nanobody; not shown: 2xFLAG, internal (between nanobody and anchor), kept; Aga1ΔN181 anchor (Aga1p YNR044W amino acids 182–544), C-terminal, kept) VHH: QVQLVESGGALVQPGGSLRLSCAASGFPVNRYSMRWYRQAPGKEREWVAGMSSAGDRSSYEDSVKGRFTISRDDARNTVYLQMNSLKPEDTAVYYCNVNVGFEYWGQGTQVTVSS
3 | > 80 | α-GFP Nb displayed as N-terminal fusion to MYC-tagged Aga1ΔN181 (VHH, anti-GFP nanobody, as in m2; also called anti-GFP Nanobody; not shown: MYC, internal (between nanobody and anchor), kept; Aga1ΔN181 anchor (Aga1p YNR044W amino acids 182–544), C-terminal, kept) VHH: QVQLVESGGALVQPGGSLRLSCAASGFPVNRYSMRWYRQAPGKEREWVAGMSSAGDRSSYEDSVKGRFTISRDDARNTVYLQMNSLKPEDTAVYYCNVNVGFEYWGQGTQVTVSS

More lines, now with the values behind:

Row | Binder | percent of cells labelled with GFP [%]
4 | α-GFP Nb displayed as C-terminal fusion to 2xFLAG-tagged Aga2 (VHH, anti-GFP nanobody, as in m2; Held on the cell by coexpressed Aga1; also called anti-GFP Nanobody; not shown: 2xFLAG, internal (after amino acid 18 of Aga2p, after the signal peptide), kept; Aga2p anchor (YGL032C), N-terminal, kept) VHH: QVQLVESGGALVQPGGSLRLSCAASGFPVNRYSMRWYRQAPGKEREWVAGMSSAGDRSSYEDSVKGRFTISRDDARNTVYLQMNSLKPEDTAVYYCNVNVGFEYWGQGTQVTVSS | > 60
5 | α-GFP Nb displayed as C-terminal fusion to untagged Aga2 (VHH, anti-GFP nanobody, as in m2; also called anti-GFP Nanobody; not shown: Aga2p anchor (YGL032C), N-terminal, kept) VHH: QVQLVESGGALVQPGGSLRLSCAASGFPVNRYSMRWYRQAPGKEREWVAGMSSAGDRSSYEDSVKGRFTISRDDARNTVYLQMNSLKPEDTAVYYCNVNVGFEYWGQGTQVTVSS | > 60
6 | α-GFP Nb displayed as C-terminal fusion to MYC-tagged Aga2 (VHH, anti-GFP nanobody, as in m2; also called anti-GFP Nanobody; not shown: Aga2p anchor (YGL032C), N-terminal, kept) VHH: QVQLVESGGALVQPGGSLRLSCAASGFPVNRYSMRWYRQAPGKEREWVAGMSSAGDRSSYEDSVKGRFTISRDDARNTVYLQMNSLKPEDTAVYYCNVNVGFEYWGQGTQVTVSS | > 60
7 | α-GFP Nb displayed as C-terminal fusion to HA-tagged Aga2 (VHH, anti-GFP nanobody, as in m2; Held on the cell by coexpressed Aga1; also called anti-GFP Nanobody; not shown: HA, internal (after amino acid 18 of Aga2p, after the signal peptide), kept; Aga2p anchor (YGL032C), N-terminal, kept) VHH: QVQLVESGGALVQPGGSLRLSCAASGFPVNRYSMRWYRQAPGKEREWVAGMSSAGDRSSYEDSVKGRFTISRDDARNTVYLQMNSLKPEDTAVYYCNVNVGFEYWGQGTQVTVSS | > 60
